B1: CPEB3 Ribozyme (parent)
chain: GGGGGCCACAGCAGAAGCGUUCACGUCGCGGCCCCUGUCAGAUUCUGGUGAAUCUGCGAAUUCUGCUGU

Variants of: B1
Assay: self-cleavage, relative activity (ratio to wild type); higher = more cleavage; co-transcriptional

Variant | self-cleavage
G41U A51C | 0.588
C39U A59U | 0.527
C39U A59C | 0.445
G41C U67C | 0.776
A40C A59U | 0.381
A40C U64G | 0.403
A40C U64C | 0.357
G41A G50U | 0.686
G41A G50C | 0.453
A40U G56U | 0.552
A40U G56C | 0.475
C39G G41A | 0.486
U38G G50A | 0.204
U38G G50C | 0.161
C39A C45G | 0.659
G41A U67C | 0.818
A40G U55A | 0.858
A40G U55G | 0.757
A40G U55C | 1
C39U G65C | 0.438
C39U G48C | 0.939
C39A G68A | 0.925
A40U U64C | 0.388
G41C A51G | 0.687

Variant | self-cleavage
G41A A60G | 0.464
C39U U61G | 0.577
G41A C45A | 0.37
G41A C45G | 0.537
G41C C63U | 0.685
G41C C63G | 0.382
A40C G65U | 0.354
A42C G48A | 0.965
A42C G48C | 0.851
A42C G48U | 0.988
A40C A52C | 0.347
A40C A52U | 0.365
G41A U46G | 0.904
C39G U69A | 0.967
C39G U69G | 1
G41A A51C | 0.483
G41A A51G | 0.797
G41U U62G | 0.391
G41A U43G | 0.241
U38G A51G | 0.258
U38G A51U | 0.295
A40G G56C | 0.779
G41U U49A | 0.97
G41U U49G | 0.848

Variant | self-cleavage
A42C A59C | 0.528
A42C A59G | 0.961
A42C A59U | 0.633
A40G G47C | 1
C39A U49C | 0.811
C39A U49G | 0.928
A40G U64G | 0.796
A40G U64C | 0.737
C39U C66G | 0.579
C39U C45G | 0.74
C39U C45A | 0.759
C39G G68U | 0.988
G41A U44C | 0.413
G41A U44A | 0.302
C39G U49G | 0.994
G41C U69A | 0.932
A42C A51U | 0.952
A42C A51C | 0.832
A40G C57A | 0.34
A40G C57U | 0.311
G41C G58C | 0.85
G41C G58U | 0.962
G41A U55C | 0.491
A42C G47U | 0.958

Variant | self-cleavage
A42C G47C | 0.977
A42C G50U | 0.932
U38C U64A | 0.772
C39A C66G | 0.535
G41C C57A | 0.285
G41C C57G | 0.249
A42C U46A | 0.967
G41A A42U | 0.49
U38G U53C | 0.24
U38G U53A | 0.287
U38G U53G | 0.255
G41C U62A | 0.294
C39G G48C | 0.945
U38G A60C | 0.137
G41C G48A | 0.949
A42C G58A | 0.925
A42C G58U | 1.01
C39A A59U | 0.446
C39A A59G | 0.911
G41A G56A | 0.77
U38G A59U | 0.228
A40G C45G | 0.942
G41U U55C | 0.34
G41U U55A | 0.551

Variant | self-cleavage
C39U U55A | 0.752
C39U U55C | 0.752
G41A C54A | 0.904
C39G U55C | 0.693
C39G U55G | 0.863
U38G G41U | 0.238
U38G G41A | 0.245
C39U C57G | 0.403
C39U C57A | 0.34
G41U G50A | 0.704
G41U G50U | 0.845
A42C C54U | 0.822
A42C C54A | 0.707
C39G G65C | 0.297
C39G G65U | 0.442
C39G C57A | 0.303
C39G C57U | 0.327
C39G C57G | 0.361
G41A U64A | 0.419
U38G C57G | 0.121
A40G | 0.97
A40U | 0.901
A40C | 0.702
C39A U46A | 0.925

Variant | self-cleavage
G41C U46G | 0.855
G41C U46C | 0.63
G41U U53A | 0.616
A42C A60C | 0.503
A42C A60G | 0.771
U38G U61G | 0.436
U38G U61C | 0.289
U38G U61A | 0.267
G41C A42G | 0.754
G41C U55G | 0.369
G41C U55A | 0.549
U38G U62A | 0.291
U38G U62G | 0.183
U38G G58U | 0.294
C39A U69C | 1.01
C39A U69A | 0.908
C39U G41C | 0.445
C39U G47U | 0.973
C39U G47A | 0.948
C39A C57A | 0.337
C39G U64A | 0.636
G41C U64C | 0.394
G41U C45U | 0.715
C39U G56U | 0.922

Variant | self-cleavage
C39G A59G | 0.947
G41A C66A | 0.388
G41A C66U | 0.756
C39U U64A | 0.616
A40C G41U | 0.22
G41U A42C | 0.389
G41U A42U | 0.862
G41U A42G | 0.777
G41C G47C | 0.939
G41C G47U | 0.935
A40G A51G | 0.979
A40C G50A | 0.423
A40C G50C | 0.424
A40C U69G | 0.875
U38G G68U | 0.273
U38G G68C | 0.175
C39A G48U | 0.903
C39A G48C | 0.912
G41C A52G | 0.609
G41C A52U | 0.415
C39A U55A | 0.825
G41U C57G | 0.328
G41U C57U | 0.243

Source: the RNAGym collection of RNA variant scans (doi:10.7554/elife.80360)
